Values belong to the binder of their own block, whether it stands above or below them.
Tests used:
[1] = molecular target: T1, human VEGF165 expressed in transduced LLC cells (human), P15692; assay: sandwich ELISA of conditioned medium of hVEGF-LLC cells, homodimer format; settings: remark: other sources report otherwise
T1 chain: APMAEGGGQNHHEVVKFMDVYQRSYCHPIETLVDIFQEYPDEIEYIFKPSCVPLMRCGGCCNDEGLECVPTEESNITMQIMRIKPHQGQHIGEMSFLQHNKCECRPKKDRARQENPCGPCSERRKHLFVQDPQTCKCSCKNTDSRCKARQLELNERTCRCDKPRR

[2] = molecular target: recombinant human VEGF165 monomer (E. coli) (human, UniProt P15692-4 27-191); assay: in vitro reduction and refolding of E. coli proteins
Description: Recombinant human PLGF-1 (SEQ ID NO: 1) and VEGF₁ monomers were expressed in E. Coli as previously described⁴⁴. An equimolar of mixture of PLGF-1- and VEGF₁ homodimers, at a total protein concentration of 0.5 mg/ml, was incubated in reducing buffer (20 mM Tris-HC1, pH 8.0, 6 M guanidine-HC1, and 10 mM DTT) at 4° C. over night. The following day the protein solution was dialyzed against 10 volumes of refolding buffer (2 M urea, 20 mM Tris-HC1, pH 8.0, 2 mM GSH (glutathione-SH) and 0.5 mM GSSG (glutathione-S-S-glutathione)). Using this refolding protocol, a mixture of homodimeric PLGF-1 and VEGF₁ as well as heterodimeric PLGF-1/VEGF was generated.

[3] = molecular target: the molecule itself; assay: sandwich ELISA of cell lysates and conditioned media of hPLGF-1-KDEL-LLC cells
From the text: To quantify the amounts of intracellular and extracellular dimeric molecules, a sensitive sandwich ELISA assay was used to analyze cell lysates and conditioned media from transduced and non-transduced LLC cell lines. Specific antibodies were used against each factor, either two antibodies against the same factor but raised in different species (homodimers) or two antibodies against different factors (heterodimers). As expected, a high level of mVEGF homodimers was detected in conditioned media from controls, wt LLC and vector-transduced LLC cells (Table 1).

- homodimer concentration in conditioned medium [1]: 41900 pg/mL
B1: human VEGF165 expressed in transduced LLC cells, P15692 27-191 (ligand, UniProt P15692-4 27-191, looked up)
chain: APMAEGGGQNHHEVVKFMDVYQRSYCHPIETLVDIFQEYPDEIEYIFKPSCVPLMRCGGCCNDEGLECVPTEESNITMQIMRIKPHQGQHIGEMSFLQHNKCECRPKKDRARQENPCGPCSERRKHLFVQDPQTCKCSCKNTDSRCKARQLELNERTCRCDKPRR

- binding result [2]: binds
B2: recombinant human PLGF-1 monomer (E. coli) (ligand)
chain: LPAVPPQQWALSAGNGSSEVEVVPFQEVWGRSYCRALERLVDVVSEYPSEVEHMFSPSCVSLLRCTGCCGDENLHCVPVETANVTMQLLKIRSGDRPSYVELTFSQHVRCECRPLREKMKPERCGDAVPRR

B3: human PLGF-1 with C-terminal KDEL ER-retention signal (ligand)
chain: LPAVPPQQWALSAGNGSSEVEVVPFQEVWGRSYCRALERLVDVVSEYPSEVEHMFSPSCVSLLRCTGCCGDENLHCVPVETANVTMQLLKIRSGDRPSYVELTFSQHVRCECRPLREKMKPERCGDAVPRRKDEL
notes: Expressed in transduced LLC cells; also called hPLGF-1-KDEL; PLGF-1-KDEL
- binding result [3]: binds

— patent US20080045469A1 (published 2008)
